# In patent publication US20190314526A1:
# Like-named read-outs stand apart in the source and are kept apart here.
# Tests used:
# [1] = biological target: AAV-2 capsid mutant E394K (rAAV-2 virion) (AAV-2) (UniProt P03135); assay: cell-based or functional assay
# [2] = biological target: AAV-2 capsid mutant E411A (rAAV-2 virion) (AAV-2) (UniProt P03135); assay: cell-based or functional assay
# [3] = biological target: AAV-2 capsid mutant E437A (rAAV-2 virion) (AAV-2) (UniProt P03135); assay: cell-based or functional assay
# [4] = biological target: AAV-2 capsid mutant K395A (rAAV-2 virion) (AAV-2) (UniProt P03135); assay: cell-based or functional assay
# [5] = biological target: AAV-2 capsid mutant K407A (rAAV-2 virion) (AAV-2) (UniProt P03135); assay: cell-based or functional assay
# [6] = biological target: AAV-2 capsid mutant K569A (rAAV-2 virion) (AAV-2) (UniProt P03135); assay: cell-based or functional assay
# [7] = biological target: AAV-2 capsid mutant Q126A (rAAV-2 virion) (AAV-2) (UniProt P03135); assay: cell-based or functional assay
# [8] = biological target: AAV-2 capsid mutant Q248A (rAAV-2 virion) (AAV-2) (UniProt P03135); assay: cell-based or functional assay
# [9] = biological target: AAV-2 capsid mutant S127A (rAAV-2 virion) (AAV-2) (UniProt P03135); assay: cell-based or functional assay
# [10] = biological target: AAV-2 capsid mutant S247A (rAAV-2 virion) (AAV-2) (UniProt P03135); assay: cell-based or functional assay
# [11] = biological target: AAV-2 capsid mutant V571A (rAAV-2 virion) (AAV-2) (UniProt P03135); assay: cell-based or functional assay
# [12] = biological target: AAV-2 capsid mutant V571K (rAAV-2 virion) (AAV-2) (UniProt P03135); assay: cell-based or functional assay
# [13] = biological target: AAV-2 capsid mutant W365A (rAAV-2 virion) (AAV-2) (UniProt P03135); assay: cell-based or functional assay
# [14] = biological target: AAV-2 with a wild-type capsid (rAAV-2 virion) (AAV-2) (UniProt P03135); assay: cell-based or functional assay
# [15] = biological target: AAV-2 capsid mutant D132N (rAAV-2 virion) (AAV-2) (UniProt P03135); assay: all-A20 ELISA, against wild type
# [16] = biological target: AAV-2 capsid mutant D357E (rAAV-2 virion) (AAV-2) (UniProt P03135); assay: all-A20 ELISA, against wild type
# [17] = biological target: AAV-2 capsid mutant E393D (rAAV-2 virion) (AAV-2) (UniProt P03135); assay: all-A20 ELISA, against wild type
# [18] = biological target: AAV-2 capsid mutant E411A/T413A (rAAV-2 virion) (AAV-2) (UniProt P03135); assay: all-A20 ELISA, against wild type
# [19] = biological target: AAV-2 capsid mutant E411A/T413A/G449A/N450A (rAAV-2 virion) (AAV-2) (UniProt P03135); assay: all-A20 ELISA, against wild type
# [20] = biological target: AAV-2 capsid mutant G246A (rAAV-2 virion) (AAV-2) (UniProt P03135); assay: all-A20 ELISA, against wild type
# [21] = biological target: AAV-2 capsid mutant G449A (rAAV-2 virion) (AAV-2) (UniProt P03135); assay: all-A20 ELISA, against wild type
# [22] = biological target: AAV-2 capsid mutant G449A/N568A (rAAV-2 virion) (AAV-2) (UniProt P03135); assay: all-A20 ELISA, against wild type
# [23] = biological target: AAV-2 capsid mutant H134Q (rAAV-2 virion) (AAV-2) (UniProt P03135); assay: all-A20 ELISA, against wild type
# [24] = biological target: AAV-2 capsid mutant H372K (rAAV-2 virion) (AAV-2) (UniProt P03135); assay: all-A20 ELISA, against wild type
# [25] = biological target: AAV-2 capsid mutant H372Q (rAAV-2 virion) (AAV-2) (UniProt P03135); assay: all-A20 ELISA, against wild type
# [26] = biological target: AAV-2 capsid mutant N360H (rAAV-2 virion) (AAV-2) (UniProt P03135); assay: all-A20 ELISA, against wild type
# [27] = biological target: AAV-2 capsid mutant N568A (rAAV-2 virion) (AAV-2) (UniProt P03135); assay: all-A20 ELISA, against wild type
# [28] = biological target: AAV-2 capsid mutant N568A/V571A (rAAV-2 virion) (AAV-2) (UniProt P03135); assay: all-A20 ELISA, against wild type
# [29] = biological target: AAV-2 capsid mutant N568K (rAAV-2 virion) (AAV-2) (UniProt P03135); assay: all-A20 ELISA, against wild type
# [30] = biological target: AAV-2 capsid mutant R334A (rAAV-2 virion) (AAV-2) (UniProt P03135); assay: all-A20 ELISA, against wild type
# [31] = biological target: AAV-2 capsid mutant R334A/G449A (rAAV-2 virion) (AAV-2) (UniProt P03135); assay: all-A20 ELISA, against wild type
# [32] = biological target: AAV-2 capsid mutant R334A/G449A/N568A (rAAV-2 virion) (AAV-2) (UniProt P03135); assay: all-A20 ELISA, against wild type
# [33] = biological target: AAV-2 capsid mutant R334A/N568A (rAAV-2 virion) (AAV-2) (UniProt P03135); assay: all-A20 ELISA, against wild type
# [34] = biological target: AAV-2 capsid mutant S130A (rAAV-2 virion) (AAV-2) (UniProt P03135); assay: all-A20 ELISA, against wild type
# [35] = biological target: AAV-2 capsid mutant S130T (rAAV-2 virion) (AAV-2) (UniProt P03135); assay: all-A20 ELISA, against wild type
# [36] = biological target: AAV-2 capsid mutant T413K (rAAV-2 virion) (AAV-2) (UniProt P03135); assay: all-A20 ELISA, against wild type
# [37] = biological target: AAV-2 capsid mutant V571K (rAAV-2 virion) (AAV-2) (UniProt P03135); assay: all-A20 ELISA, against wild type
# [38] = biological target: AAV-2 with a wild-type capsid (rAAV-2 virion) (AAV-2) (UniProt P03135); assay: all-A20 ELISA, virus needed for half maximal OD, against wild type
# [39] = biological target: caprine (goat) AAV capsid (caprine rAAV virion) (caprine AAV); assay: cell-based or functional assay
# [40] = biological target: primate AAV-8 capsid (rAAV virion) (primate AAV-8); assay: cell-based or functional assay
# [41] = biological target: bovine AAV-C1 capsid (AAV-C1-LacZ vector) (bovine AAV); assay: cell-based or functional assay
# [42] = biological target: caprine (goat) AAV capsid (caprine rAAV virion) (caprine AAV); assay: cell-based or functional assay; remark: listed apart in the source
# [43] = biological target: primate AAV-1 capsid (rAAV virion) (primate AAV-1); assay: cell-based or functional assay
# [44] = biological target: primate AAV-3B capsid (rAAV virion) (primate AAV-3B); assay: cell-based or functional assay
# [45] = biological target: primate AAV-4 capsid (rAAV virion) (primate AAV-4); assay: cell-based or functional assay
# [46] = biological target: primate AAV-5 capsid (rAAV virion) (primate AAV-5); assay: cell-based or functional assay
# [47] = biological target: primate AAV-6 capsid (rAAV virion) (primate AAV-6); assay: cell-based or functional assay
# [48] = biological target: primate AAV-8 capsid (rAAV virion) (primate AAV-8); assay: cell-based or functional assay; remark: listed apart in the source
substance,measurement,setting,value
murine monoclonal antibody A20 (protein A-purified anti-AAV-2 mouse monoclonal antibody),Fold decrease in A20 titer,[1],0.9 fold
same,Fold decrease in A20 titer,[2],2.7 fold
same,Fold decrease in A20 titer,[3],0.8 fold
same,Fold decrease in A20 titer,[4],0.9 fold
same,Fold decrease in A20 titer,[5],1.6 fold
same,Fold decrease in A20 titer,[6],1.7 fold
same,Fold decrease in neutralizing titer,[7],2.5 fold
same,neutralizing titer of A20 (reciprocal dilution),[7],203
same,Fold decrease in neutralizing titer,[8],5.7 fold
same,neutralizing titer of A20 (reciprocal dilution),[8],89
same,Fold decrease in neutralizing titer,[9],57 fold
same,neutralizing titer of A20 (reciprocal dilution),[9],9
same,Fold decrease in neutralizing titer,[10],2.8 fold
same,neutralizing titer of A20 (reciprocal dilution),[10],180
same,Fold decrease in A20 titer,[11],1.4 fold
same,Fold decrease in A20 titer,[12],217 fold
same,Fold decrease in A20 titer,[13],0.5 fold
same,% neutralized at dilutions of A20 greater than 1:1000,[14],< 3%
same,Fold decrease in neutralizing titer,[14],1 fold
same,neutralizing titer of A20 (reciprocal dilution),[14],509
same,Fold decrease in binding of murine A20,[15],1 fold
same,Fold decrease in binding of murine A20,[16],1 fold
same,Fold decrease in binding of murine A20,[17],1 fold
same,Fold decrease in binding of murine A20,[18],1 fold
same,Fold decrease in binding of murine A20,[19],1 fold
same,Fold decrease in binding of murine A20,[20],1 fold
same,Fold decrease in binding of murine A20,[21],1 fold
same,Fold decrease in binding of murine A20,[22],1 fold
same,Fold decrease in binding of murine A20,[23],1 fold
same,Fold decrease in binding of murine A20,[24],1 fold
same,Fold decrease in binding of murine A20,[25],1 fold
same,Fold decrease in binding of murine A20,[26],1 fold
same,Fold decrease in binding of murine A20,[27],1 fold
same,Fold decrease in binding of murine A20,[28],1 fold
same,Fold decrease in binding of murine A20,[29],1 fold
same,Fold decrease in binding of murine A20,[30],1 fold
same,Fold decrease in binding of murine A20,[31],1 fold
same,Fold decrease in binding of murine A20,[32],1 fold
same,Fold decrease in binding of murine A20,[33],1 fold
same,Fold decrease in binding of murine A20,[34],1 fold
same,Fold decrease in binding of murine A20,[35],1 fold
same,Fold decrease in binding of murine A20,[36],1 fold
same,Fold decrease in binding of murine A20,[37],10 fold
same,Fold decrease in binding of murine A20,[38],1 fold
"purified pooled human IgG IVIG-8 (Panglobulin Lot #1838-00351, ZLB Bioplasma AG)",Lowest concentration of IVIG showing >50% neutralization of the virus,[39],40 mg/mL
same,Lowest concentration of IVIG showing >50% neutralization of the virus,[40],10 mg/mL
same,% blue cells compared to the control at IVIg 8 0.01 ug/ul,[14],100%
same,% blue cells compared to the control at IVIg 8 0.1 ug/ul,[14],100%
same,% blue cells compared to the control at IVIg 8 10 ug/ul,[14],2%
same,% blue cells compared to the control at IVIg 8 50 ug/ul,[14],0%
same,Lowest concentration of IVIG showing >50% neutralization of the virus,[14],10 mg/mL
same,lowest concentration of IVIG showing more than 50% neutralization,[14],0.2 mg/mL
same,fold more resistant to neutralization by human IVIG than AAV-2,[41],16 fold
same,lowest concentration of IVIG showing more than 50% neutralization,[41],3.25 mg/mL
same,% of control transduction at IVIg 8 0.1 ug/ul,[42],120%
same,% of control transduction at IVIg 8 1 ug/ul,[42],93%
same,% of control transduction at IVIg 8 10 ug/ul,[42],80%
same,% of control transduction at IVIg 8 40 ug/ul,[42],14%
same,% of control transduction at IVIg 8 50 ug/ul,[42],8%
same,Lowest concentration of IVIG showing >50% neutralization of the virus,[42],50 mg/mL
same,% blue cells compared to the control at IVIg 8 0.01 ug/ul,[43],100%
same,% blue cells compared to the control at IVIg 8 0.1 ug/ul,[43],86%
same,% blue cells compared to the control at IVIg 8 10 ug/ul,[43],14%
same,% blue cells compared to the control at IVIg 8 50 ug/ul,[43],0%
same,Lowest concentration of IVIG showing >50% neutralization of the virus,[43],10 mg/mL
same,% blue cells compared to the control at IVIg 8 0.01 ug/ul,[44],92%
same,% blue cells compared to the control at IVIg 8 1 ug/ul,[44],45%
same,% blue cells compared to the control at IVIg 8 10 ug/ul,[44],0%
same,% blue cells compared to the control at IVIg 8 50 ug/ul,[44],0%
same,Lowest concentration of IVIG showing >50% neutralization of the virus,[44],1 mg/mL
same,% blue cells compared to the control at IVIg 8 0.01 ug/ul,[45],100%
same,% blue cells compared to the control at IVIg 8 0.1 ug/ul,[45],100%
same,% blue cells compared to the control at IVIg 8 1 ug/ul,[45],100%
same,% blue cells compared to the control at IVIg 8 50 ug/ul,[45],49%
same,Lowest concentration of IVIG showing >50% neutralization of the virus,[45],50 mg/mL
same,% blue cells compared to the control at IVIg 8 0.1 ug/ul,[46],17%
same,% blue cells compared to the control at IVIg 8 1 ug/ul,[46],1%
same,% blue cells compared to the control at IVIg 8 10 ug/ul,[46],1%
same,% blue cells compared to the control at IVIg 8 50 ug/ul,[46],0%
same,Lowest concentration of IVIG showing >50% neutralization of the virus,[46],0.1 mg/mL
same,% blue cells compared to the control at IVIg 8 0.01 ug/ul,[47],100%
same,% blue cells compared to the control at IVIg 8 0.1 ug/ul,[47],81%
same,% blue cells compared to the control at IVIg 8 10 ug/ul,[47],14%
same,% blue cells compared to the control at IVIg 8 50 ug/ul,[47],0%
same,Lowest concentration of IVIG showing >50% neutralization of the virus,[47],10 mg/mL
same,% blue cells compared to the control at IVIg 8 0.01 ug/ul,[48],90%
same,% blue cells compared to the control at IVIg 8 0.1 ug/ul,[48],88%
same,% blue cells compared to the control at IVIg 8 1 ug/ul,[48],77%
same,% blue cells compared to the control at IVIg 8 50 ug/ul,[48],0%
same,% of control transduction at IVIg 8 0.1 ug/ul,[48],105%
same,% of control transduction at IVIg 8 10 ug/ul,[48],44%
same,% of control transduction at IVIg 8 20 ug/ul,[48],11%
same,% of control transduction at IVIg 8 40 ug/ul,[48],0%
same,% of control transduction at IVIg 8 50 ug/ul,[48],0%
same,Lowest concentration of IVIG showing >50% neutralization of the virus,[48],50 mg/mL
